{
  "source": "patent US20200316217A1",
  "about": "(CHILDREN S MEDICAL CENTER, published 2020)",
  "key": {"PTHR1YFPΔECD [1]": {"biological_target": "PTHR1YFPΔECD (human)", "test": "cell-based or functional assay"}, "rat PTHR1 [2]": {"biological_target": "T1, rat PTHR1 (rat, UniProt P25961 27-591)", "T1 sequence (looked up)": "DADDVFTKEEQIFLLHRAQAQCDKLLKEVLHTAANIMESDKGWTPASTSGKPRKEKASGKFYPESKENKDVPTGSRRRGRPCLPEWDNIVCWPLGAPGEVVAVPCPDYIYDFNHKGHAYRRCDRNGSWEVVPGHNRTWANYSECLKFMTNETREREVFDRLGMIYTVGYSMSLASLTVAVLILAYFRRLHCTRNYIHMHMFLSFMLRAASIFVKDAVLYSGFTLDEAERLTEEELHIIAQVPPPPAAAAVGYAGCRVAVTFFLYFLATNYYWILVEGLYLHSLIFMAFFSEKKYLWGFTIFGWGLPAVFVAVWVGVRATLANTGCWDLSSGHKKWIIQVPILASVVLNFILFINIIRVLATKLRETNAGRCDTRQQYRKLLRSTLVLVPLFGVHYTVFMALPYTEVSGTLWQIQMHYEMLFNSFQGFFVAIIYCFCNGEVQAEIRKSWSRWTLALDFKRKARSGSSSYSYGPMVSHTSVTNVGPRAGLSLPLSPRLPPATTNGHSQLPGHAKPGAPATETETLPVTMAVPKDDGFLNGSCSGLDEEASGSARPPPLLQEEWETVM", "test": "cell-based or functional assay"}, "PTHR1YFPΔECD [3]": {"biological_target": "PTHR1YFPΔECD (human)", "test": "cell-based or functional assay", "remark": "listed apart in the source"}, "human PTHR2": {"biological_target": "T2, human PTHR2 (human, UniProt P49190 25-550)", "T2 construct": "whole, on cells; Stably expressed on HEK293 cells; also called hPTHR2", "T2 sequence (P49190 25-550)": "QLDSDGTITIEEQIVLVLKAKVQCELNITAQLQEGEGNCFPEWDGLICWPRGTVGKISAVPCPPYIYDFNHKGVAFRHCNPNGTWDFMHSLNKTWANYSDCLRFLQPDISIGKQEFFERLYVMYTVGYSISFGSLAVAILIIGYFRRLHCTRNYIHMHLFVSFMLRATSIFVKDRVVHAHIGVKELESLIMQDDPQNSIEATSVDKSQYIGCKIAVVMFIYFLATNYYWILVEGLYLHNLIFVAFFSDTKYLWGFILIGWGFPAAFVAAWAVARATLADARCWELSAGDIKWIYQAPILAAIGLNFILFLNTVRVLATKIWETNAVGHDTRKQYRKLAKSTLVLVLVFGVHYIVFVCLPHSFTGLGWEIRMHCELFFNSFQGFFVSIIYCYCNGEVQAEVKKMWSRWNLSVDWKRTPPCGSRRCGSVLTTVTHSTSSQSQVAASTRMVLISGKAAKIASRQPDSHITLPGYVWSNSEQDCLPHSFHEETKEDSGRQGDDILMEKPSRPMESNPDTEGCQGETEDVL", "test": "flow cytometry, AlexaFluor647-VHH on stably transfected HEK293 cells", "method": "(§1) FIGS. 14A-14B: Binding of VHHs to HEK293 cell lines stably transfected with PTHRs. (FIG. 14A) Analysis of VHH binding to PTHR1, PTHR2 and variants by flow cytometry. HEK293 cell lines in suspension were incubated on ice with 100 nM VHH sortagged with Alexafluor647, pelleted by centrifugation, washed and analyzed. Data for PTHR1-GFP is found in FIGS. 17A to 17C. (FIG. 14B) Analysis of VHH binding with microscopy. […] Following staining, cells were washed and treated with fixative in preparation for image acquisition either immediately after staining (0 m) or following a 15-minute incubation in medium at room temperature (15 m).\n(§2) Suspensions of cells in PBS were stained for 1 hour on ice in the presence of indicated concentrations of VHH probes functionalized with Alexafluor647. Cells were pelleted by centrifugation and washed with PBS prior to analysis by flow cytometry (BD Accuri C6). Gating was performed on forward scatter/side scatter profiles to analyze intact cells. Data was analyzed using FlowJo version 7.6. The median fluorescent intensity (MFI) of stained cells was used to generate VHH binding dose response curves (FIG. 20).\n(§3) It was determined whether VHHs bound to their intended targets on live cells by flow cytometry (FIG. 14A)."}, "PTHR16E [4]": {"biological_target": "T3, PTHR16E (human, UniProt Q03431 27-593)", "T3 construct": "Stably expressed on HEK293 cells; also called hPTHR16E", "T3 chain": "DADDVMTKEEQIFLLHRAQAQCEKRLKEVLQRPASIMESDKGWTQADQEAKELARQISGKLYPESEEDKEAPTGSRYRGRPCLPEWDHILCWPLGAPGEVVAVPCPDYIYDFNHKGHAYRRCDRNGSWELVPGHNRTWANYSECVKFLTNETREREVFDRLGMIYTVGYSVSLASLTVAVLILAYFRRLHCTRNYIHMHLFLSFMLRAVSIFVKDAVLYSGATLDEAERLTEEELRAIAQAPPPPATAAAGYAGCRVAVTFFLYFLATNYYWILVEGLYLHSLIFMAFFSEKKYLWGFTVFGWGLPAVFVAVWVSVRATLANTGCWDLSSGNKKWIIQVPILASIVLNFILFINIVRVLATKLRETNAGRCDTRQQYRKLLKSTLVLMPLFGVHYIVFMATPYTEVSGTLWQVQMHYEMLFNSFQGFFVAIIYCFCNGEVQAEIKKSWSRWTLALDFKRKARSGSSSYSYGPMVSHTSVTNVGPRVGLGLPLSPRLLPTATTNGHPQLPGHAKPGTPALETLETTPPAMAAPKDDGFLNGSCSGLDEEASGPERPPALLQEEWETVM", "test": "flow cytometry, AlexaFluor647-VHH titrated on HEK293 cells expressing the receptor (MFI)", "method": "as §2\n(§4) It was determined whether VHHs bound to their intended targets on live cells by flow cytometry (FIG. 14A). […] To estimate the affinity of the selected VHH for their targets flow cytometry was used to quantify binding."}, "PTHR1YFPΔECD [5]": {"biological_target": "T4, PTHR1YFPΔECD (human)", "T4 construct": "PTHR1 in which YFP replaces the entire extracellular domain; Stably expressed on HEK293 cells (GD5); also called Human PTHR1-delNT-YFP; hPTHR1YFPΔECD", "test": "flow cytometry, AlexaFluor647-VHH on stably transfected HEK293 cells", "method": "as §1, §2, §3"}, "rat PTHR1 [6]": {"biological_target": "T1, rat PTHR1", "test": "flow cytometry, AlexaFluor647-VHH titrated on HEK293 cells expressing the receptor (MFI); plateau estimated", "method": "as §2, §4"}, "PTHR1GFP": {"biological_target": "T5, PTHR1GFP (human, UniProt Q03431 95-593)", "T5 construct": "Human PTHR1 with the pH-sensitive GFP variant pHluorin2 inserted in the exon 2 portion; Stably expressed on HEK293 cells (GPG10); also called hPTHR1-GFP; hPTHR1GFP", "test": "flow cytometry, AlexaFluor647-VHH titrated on HEK293 cells expressing the receptor (MFI); plateau estimated", "method": "as §2, §4"}, "PTHR16E [7]": {"biological_target": "T3, PTHR16E", "test": "flow cytometry, AlexaFluor647-VHH titrated on HEK293 cells expressing the receptor (MFI); plateau estimated", "method": "as §2, §4"}, "Human PTHR1 WT": {"biological_target": "T6, Human PTHR1 WT (human, UniProt Q03431 27-593)", "T6 construct": "Stably expressed on HEK293 cells (GP2.3); also called hPTHR1; wild-type PTHR1", "T6 sequence": "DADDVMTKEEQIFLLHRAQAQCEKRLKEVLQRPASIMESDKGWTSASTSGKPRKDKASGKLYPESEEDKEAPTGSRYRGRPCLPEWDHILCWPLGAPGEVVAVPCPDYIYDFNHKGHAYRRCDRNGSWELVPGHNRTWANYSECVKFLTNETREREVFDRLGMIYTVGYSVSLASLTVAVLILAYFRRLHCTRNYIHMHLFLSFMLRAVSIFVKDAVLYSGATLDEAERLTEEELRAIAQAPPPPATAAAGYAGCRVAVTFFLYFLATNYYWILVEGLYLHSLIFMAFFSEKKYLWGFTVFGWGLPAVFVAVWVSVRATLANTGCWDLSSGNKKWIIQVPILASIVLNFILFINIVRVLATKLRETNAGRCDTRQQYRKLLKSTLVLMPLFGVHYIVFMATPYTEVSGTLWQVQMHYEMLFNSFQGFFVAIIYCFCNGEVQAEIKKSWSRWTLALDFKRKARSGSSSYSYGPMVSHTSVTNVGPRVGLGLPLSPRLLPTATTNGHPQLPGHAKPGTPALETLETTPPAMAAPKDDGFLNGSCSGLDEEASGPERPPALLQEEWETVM", "test": "flow cytometry, AlexaFluor647-VHH titrated on HEK293 cells expressing the receptor (MFI); plateau estimated", "method": "as §2, §4"}},
  "note": "Ends that are not written are not given here.",
  "data": [
    {"binder": "SVSEIQLMHNLGKHLNSMERVEWLRKKLQDVHNF-NH2", "note": "[PTH(1-34)]", "values": [
      {"measurement": "cAMP induction EC50", "setting": "PTHR1YFPΔECD [1]", "value": 689, "unit": "nM"},
      {"measurement": "cAMP induction Max (normalized)", "setting": "PTHR1YFPΔECD [1]", "value": 1, "unit": "normalized"},
      {"measurement": "cAMP induction Max (normalized)", "setting": "rat PTHR1 [2]", "value": 1, "unit": "normalized"},
      {"measurement": "Stimulation of receptor (cAMP), EC50", "setting": "PTHR1YFPΔECD [3]", "value": 689, "unit": "nM"}
    ]},
    {"binder": "VHH6E (VHH, C-terminus sortagged to a GGG-probe (AlexaFluor647, tetramethylrhodamine or biotin-azide), It recognises a 14-mer from UBC6e; also called VHH05; VHH005) VHH: QVQLQESGGGLVQPGGSLRLSCAASGFVFENSAMAWYRQAPGKERELIAVIGTTFIKLAESVKGRFTISRDNAKSTVYLQMNNLKPEDTAVYYCSKSGAYWGQGTQVTVSS", "values": [
      {"measurement": "binding result", "setting": "human PTHR2", "value": "no binding (tested: 100 nM)"},
      {"measurement": "EC50", "setting": "PTHR16E [4]", "value": "< 10", "unit": "nM"}
    ]},
    {"binder": "VHHPTHR (VHH, C-terminus sortagged to a GGG-probe (AlexaFluor647, tetramethylrhodamine or biotin-azide), The label depends on the assay; also called VHH22A3; 22A3) VHH: EVQLVESGGGLVQAGGSLRLSCAASGNIFANNIMGWYRQPPGKEREFVAHVSHDGDSMYAVSVKGRFAISRKDATNLYLQMNSLKPEDTAIYFCRLLNIPTQGRMEGFWGQGTQVTVSS", "values": [
      {"measurement": "binding result", "setting": "PTHR1YFPΔECD [5]", "value": "no binding (tested: 100 nM)"},
      {"measurement": "binding result", "setting": "human PTHR2", "value": "no binding (tested: 100 nM)"},
      {"measurement": "EC50", "setting": "rat PTHR1 [6]", "value": "100 to 200", "unit": "nM"},
      {"measurement": "EC50", "setting": "PTHR1GFP", "value": "100 to 200", "unit": "nM"},
      {"measurement": "EC50", "setting": "PTHR16E [7]", "value": "100 to 200", "unit": "nM"},
      {"measurement": "EC50", "setting": "Human PTHR1 WT", "value": "100 to 200", "unit": "nM"}
    ]},
    {"binder": "VHHGFP (VHH, C-terminus sortagged to a GGG-probe (AlexaFluor647 or biotin-azide), also called VHH Enhancer; VHH-enhancer) VHH: QVQLQESGGALVQPGGSLRLSCAASGFPVNRYSMRWYRQAPGKEREWVAGMSSAGDRSSYEDSVKGRFTISRDDARNTVYLQMNSLKPEDTAVYYCNVNVGFEYWGQGTQVTVSS", "values": [
      {"measurement": "binding result", "setting": "human PTHR2", "value": "no binding (tested: 100 nM)"}
    ]}
  ]
}
